Source: the supplement of paper PMC11246515
± gives the standard deviation of the averaged measurements.

Experiment: total protein half-life in vivo (active degradation + dilution); higher = more stable protein
[1] = E. coli NCM3722 delta-clpP delta-lon delta-hslV, growth: N-lim chemostat, doubling time 6 h
[2] = E. coli NCM3722 delta-clpP, growth: N-lim chemostat, doubling time 6 h
[3] = E. coli NCM3722 delta-hslV, growth: N-lim chemostat, doubling time 6 h
[4] = E. coli NCM3722 delta-smpB, growth: N-lim chemostat, doubling time 6 h
[5] = wild type E. coli NCM3722, growth: C-lim chemostat, doubling time 3 h
[6] = wild type E. coli NCM3722, growth: C-lim chemostat, doubling time 6 h
[7] = wild type E. coli NCM3722, growth: C-lim chemostat, doubling time 12 h
[8] = wild type E. coli NCM3722, growth: N-lim chemostat, doubling time 6 h
[9] = wild type E. coli NCM3722, growth: N-lim chemostat, doubling time 12 h
[10] = wild type E. coli NCM3722, growth: P-lim chemostat, doubling time 6 h
[11] = wild type E. coli NCM3722, growth: P-lim chemostat, doubling time 12 h
[12] = E. coli NCM3722 delta-lon, growth: N-lim chemostat, doubling time 6 h

Sequence | total protein half-life in vivo [1] | total protein half-life in vivo [2] | total protein half-life in vivo [3] | total protein half-life in vivo [4] | total protein half-life in vivo [5] | total protein half-life in vivo [6] | total protein half-life in vivo [7] | total protein half-life in vivo [8] | total protein half-life in vivo [9] | total protein half-life in vivo [10] | total protein half-life in vivo [11] | total protein half-life in vivo [12]
MNYEIKQEEKRTVAGFHLVGPWEQTVKKGFEQLMMWVDSKNIVPKEWVAVYYDNPDETPAEKLRCDTVVTVPGYFTLPENSEGVILTEITGGQYAVAVARVVGDDFAKPWYQFFNSLLQDSAYEMLPKPCFEVYLNNGAEDGYWDIEMYVAVQPKHH | 4.8 ± 0.93 h | 2.75 h | 3.39 ± 0.23 h | 4.26 ± 1.8 h | 2.22 ± 0.21 h | 3.9 ± 0.048 h | 5.57 ± 0.35 h | 3.16 h | 4.89 ± 0.49 h | 2.6 h | 6.49 ± 0.56 h | 
MNYHQYYPVDIVNGPGTRCTLFVSGCVHECPGCYNKSTWRVNSGQPFTKAMEDQIINDLNDTRIKRQGISLSGGDPLHPQNVPDILKLVQRIRAECPGKDIWVWTGYKLDELNAAQMQVVDLINVLVDGKFVQDLKDPSLIWRGSSNQVVHHLR [P0A9N8] |  | 1.08 h |  |  |  |  | 2.03 h |  |  |  |  | 
MNYQNDDLRIKEIKELLPPVALLEKFPATENAANTVAHARKAIHKILKGNDDRLLVVIGPCSIHDPVAAKEYATRLLALREELKDELEIVMRVYFEKPRTTVGWKGLINDPHMDNSFQINDGLRIARKLLLDINDSGLPAAGEFLDMITPQYLADLMSWGAIGARTTESQVHRELASGLSCPVGFKNGTDGTIKVAIDAINAAGAPHCFLSVTKWGHSAIVNTSGNGDCHIILRGGKEPNYSAKHVAEVKEGLNKAGLPAQVMIDFSHANSSKQFKKQMDVCADVCQQIAGGEKAIIGVMVESHLVEGNQSLESGEPLAYGKSITDACIGWEDTDALLRQLANAVKARRG [P0AB91] | 3.65 ± 0.43 h | 2.92 ± 0.049 h | 2.76 ± 0.068 h | 3.01 ± 0.16 h | 3.18 ± 0.28 h | 5.81 ± 0.16 h | 10.3 ± 0.25 h | 3.02 ± 0.048 h | 3.98 ± 0.2 h | 5.41 ± 0.039 h | 10.3 ± 0.3 h | 3.62 ± 0.64 h
MPACELRPATQYDTDAVYALICELKQAEFDHHAFRVGFNANLRDPNMRYHLALLDGEVVGMIGLHLQFHLHHVNWIGEIQELVVMPQARGLNVGSKLLAWAEEEARQAGAEMTELSTNVKRHDAHRFYLREGYEQSHFRFTKAL | 4.67 ± 0.61 h | 2.53 ± 0.34 h | 1.8 ± 0.17 h | 1.58 ± 0.037 h | 1.61 ± 0.22 h | 2.49 ± 0.34 h | 2.45 h | 1.93 ± 0.3 h | 2.54 ± 0.055 h | 3.65 ± 0.24 h | 6.57 ± 0.13 h | 2.76 ± 0.12 h
MPAPVVLILAAGRGECFLASGGNTHKCIGWRQSPEVAPYRWPFEENGRTFDLAIEPQITTNDLRLMLRLALAGGGITIATQETFRPYIESGKLVSLLDDFLPQFPGFYLYFPQRRNIAPKLRALIDYVKEWRQQLA | 4.63 h |  |  |  |  |  |  |  |  |  |  | 
MPDQTQQFSFKVLTINIHKGFTAFNRRFILPELRDAVRTVSADIVCLQEVMGAHEVHPLHVENWPDTSHYEFLADTMWSDFAYGRNAVYPEGHHGNAVLSRYPIEHYENRDVSVDGAEKRGVLYCRIVPPMTGKAIHVMCVHLGLREAHRQAQLAMLAEWVNELPDGEPVLVAGDFNDWRQKANHPLKVQAGLDEIFTRAHGRPARTFPVQFPLLRLDRIYVKNASASAPTALPLRTWRHLSDHAPLSAEIHL [P0AAW1] | 6.17 ± 0.23 h | 6.2 ± 0.43 h |  | 5.57 ± 0.47 h | 2.68 ± 0.41 h | 4.96 ± 0.51 h | 10.9 ± 3 h | 5.11 ± 0.57 h | 13.9 ± 0.67 h | 5.16 ± 0.24 h | 11.5 ± 0.52 h | 5.85 ± 0.22 h
MPDSRKARRIADPGLQPERTSLAWFRTMLGYGALMALAIKHNWHQAGMLFWISIGILAIVALILWHYTRNRNLMDVTNSDFSQFHVVRDKFLISLAVLSLAILFAVTHIHQLIVFIERVA [P0ADL6] |  |  |  |  |  |  |  |  | 8.68 h |  |  | 
MPELPEVETSRRGIEPHLVGATILHAVVRNGRLRWPVSEEIYRLSDQPVLSVQRRAKYLLLELPEGWIIIHLGMSGSLRILPEELPPEKHDHVDLVMSNGKVLRYTDPRRFGAWLWTKELEGHNVLTHLGPEPLSDDFNGEYLHQKCAKKKTAIKPWLMDNKLVVGVGNIYASESLFAAGIHPDRLASSLSLAECELLARVIKAVLLRSIEQGGTTLKDFLQSDGKPGYFAQELQVYGRKGEPCRVCGTPIVATKHAQRATFYCRQCQK | 6.1 ± 0.54 h | 6.39 ± 0.79 h | 6.03 h | 5.63 ± 0.36 h | 2.58 ± 0.11 h |  | 12.7 ± 2.8 h | 6.31 ± 0.42 h | 12.8 ± 1.4 h | 6.46 ± 0.51 h | 14.2 ± 0.28 h | 6.39 ± 1.2 h
MPENYTPAAAATGTWTEEEIRHQPRAWIRSLTNIDALRSALNNFLEPLLRKENLRIILTGAGTSAFIGDIIAPWLASHTGKNFSAVPTTDLVTNPMDYLNPAHPLLLISFGRSGNSPESVAAVELANQFVPECYHLPITCNEAGALYQNAINSDNAFALLMPAETHDRGFAMTSSITTMMASCLAVFAPETINSQTFRDVADRCQAILTSLGDFSEGVFGYAPWKRIVYLGSGGLQGAARESALKVLELTAGKLAAFYDSPTGFRHGPKSLVDDETLVVVFVSSHPYTRQYDLDLLAELRRDNQAMRVIAIAAESSDIVAAGPHIILPPSRHFIDVEQAFCFLMYAQTFALMQSLHMGNTPDTPSASGTVNRVVQGVIIHPWQA |  |  |  |  | 3.44 ± 0.35 h | 3.18 h | 5.91 h |  |  |  |  | 
MPEPVAEPALNGLRLNLRIVSIVMFNFASYLTIGLPLAVLPGYVHDVMGFSAFWAGLVISLQYFATLLSRPHAGRYADSLGPKKIVVFGLCGCFLSGLGYLTAGLTASLPVISLLLLCLGRVILGIGQSFAGTGSTLWGVGVVGSLHIGRVISWNGIVTYGAMAMGAPLGVVFYHWGGLQALALIIMGVALVAILLAIPRPTVKASKGKPLPFRAVLGRVWLYGMALALASAGFGVIATFITLFYDAKGWDGAAFALTLFSCAFVGTRLLFPNGINRIGGLNVAMICFSVEIIGLLLVGVATMPWMAKIGVLLAGAGFSLVFPALGVVAVKAVPQQNQGAALATYTVFMDLSLGVTGPLAGLVMSWAGVPVIYLAAAGLVAIALLLTWRLKKRPPEHVPEAASSS |  | 3.62 h |  |  |  |  |  |  |  |  |  | 
